Here are results for seven molecules from patent US20250042963A1, “METHODS FOR TREATING MYELOPROLIFERATIVE DISORDERS” (Acceleron Pharma Inc., priority 2015, published 2025).

What is called IC50 is the concentration that gives 50% inhibition.

The test system of data set [1] is patients with a myeloproliferative disorder. The note with it: cited from earlier work; for toxicity: patients with splenomegaly.
The target of a further data set is T1, human TGFβ2 (Homo sapiens, UniProt P61812).
T1 construct: purchased PeproTech
T1 sequence (P61812 303-414 limits assumed): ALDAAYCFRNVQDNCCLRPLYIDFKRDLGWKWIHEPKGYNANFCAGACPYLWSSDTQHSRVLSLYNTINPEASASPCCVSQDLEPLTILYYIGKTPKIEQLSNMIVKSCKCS
Briefly: Reporter gene assay in A549 cells (pGL3(CAGA)12), inhibition of TGFβ2 activity. The data set is classed as cell-based. The note with it: Summary of Ligand Selectivity; cell names the ligand in this class. An excerpt:
(§1) A reporter gene assay in A549 cells was used to determine the ability of hTβRII-hFc variants to inhibit activity of TGFβ1, TGFβ2, and TGFβ3. This assay is based on a human lung carcinoma cell line transfected with a pGL3(CAGA)12 reporter plasmid (Dennler et al., 1998, EMBO 17: 3091-3100) as well as a Renilla reporter plasmid (pRLCMV) to control for transfection efficiency. The CAGA motif is present in the promoters of TGFβ-responsive genes (for example, PAI-1), so this vector is of general use for factors signaling through SMAD2 and SMAD3.
(§2) On the first day of the assay, A549 cells (ATCC®: CCL-185™) were distributed in 48-well plates at 6.5×10^4 cells per well. On the second day, a solution containing 10 μg pGL3(CAGA)12, 100 ng pRLCMV, 30 μl X-tremeGENE 9 (Roche Applied Science), and 970 μl OptiMEM (Invitrogen) was preincubated for 30 min, then added to Eagle's minimum essential medium (EMEM, ATCC®) supplemented with 0.1% BSA, which was applied to the plated cells (500 μl/well) for incubation overnight at […]. On the third day, medium was removed, and cells were incubated overnight at 37° C. with a mixture of ligands and inhibitors prepared as described below.
(§3) Serial dilutions of test articles were made in a 48-well plate in a 200 μl volume of assay buffer (EMEM+0.1% BSA). An equal volume of assay buffer containing the test ligand was added to obtain a final ligand concentration equal to the EC50 determined previously. Human TGFβ 1, human TGFβ2, and human TGFβ3 were obtained from PeproTech. Test solutions were incubated at 37° C. for 30 minutes, then 250 μl of the mixture was added to all wells. Each concentration of test article was determined in duplicate. After incubation with test solutions overnight, cells were rinsed with phosphate-buffered saline, then lysed with passive lysis buffer (Promega E1941) and stored overnight at −70° C. On the fourth and final day, plates were warmed to room temperature with gentle shaking. Cell lysates were transferred in duplicate to a chemiluminescence plate (96-well) and analyzed in a luminometer with reagents from a Dual-Luciferase Reporter Assay system (Promega E1980) to determine normalized luciferase activity.
Background: In a reporter assay the amount or activity of a reporter protein is the signal.

In another data set the target is T2, human TGFβ1 (Homo sapiens, UniProt P01137).
T2 construct: purchased PeproTech
Briefly: Reporter gene assay in A549 cells (pGL3(CAGA)12), inhibition of TGFβ1 activity. The data set is classed as cell-based. To be noted: for IC50: A549 reporter gene assay, hTGFβ1 640 pg/ml; for inhibition of TGFβ1 activity / signaling (in words): cell-based reporter assay; for Degree of Ligand Inhibition: Moderate (ligand TGFβ1): Summary of Ligand Selectivity, cell names the ligand in this class.
Description: as §1, §2, §3

For the next data set, the target named is T3, human TGFβ3 (Homo sapiens, UniProt P10600).
T3 construct: purchased PeproTech
T3 sequence (P10600 301-412 limits assumed): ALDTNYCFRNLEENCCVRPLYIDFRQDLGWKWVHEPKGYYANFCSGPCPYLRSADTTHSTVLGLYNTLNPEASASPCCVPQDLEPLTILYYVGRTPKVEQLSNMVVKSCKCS
Briefly: Reporter gene assay in A549 cells (pGL3(CAGA)12), inhibition of TGFβ3 activity. The data set is classed as cell-based. The note with it: for inhibition of TGFβ3 activity / signaling (in words): cell-based reporter assay.
Description: A reporter gene assay in A549 cells was used to determine the ability of hTβRII-hFc variants to inhibit activity of TGFβ1, TGFβ2, and TGFβ3. This assay is based on a human lung carcinoma cell line transfected with a pGL3(CAGA)12 reporter plasmid (Dennler et al., 1998, EMBO 17: 3091-3100) as well as a Renilla reporter plasmid (pRLCMV) to control for transfection efficiency.
as §2
as §3, with “An equal volume of assay buffer containing the test ligand was added to obtain a final ligand concentration equal to the EC50 determined previously.” left out

Setting [2] is: Summary of Ligand Selectivity, cell names the ligand in this class.
Setting [3] is: third experiment (C-terminal truncation, N70D).

T2 sequence (P01137 279-390 limits assumed): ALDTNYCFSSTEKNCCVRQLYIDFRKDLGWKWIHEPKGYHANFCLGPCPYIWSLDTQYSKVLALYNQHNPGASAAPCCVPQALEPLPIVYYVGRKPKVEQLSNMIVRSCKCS

For `Nc1nc(Cl)nc2c1ncn2[C@H]1C[C@H](O)[C@@H](CO)O1` [cladribine], in data set [1], the toxicity entry is “severe but reversible cytopenias”. Further, in data set [1] (symptomatic splenomegaly), the “spleen responses / response rate” value is on record as “up to 50%”.

For `NC(=O)NO` [HC, Hydroxycarbamide], in data set [1] (patients treated with HC), the “patients with reductions in spleen size from 25%-50%” value is listed as “up to 35%”. The toxicity result in data set [1] was “exacerbate cytopenias”.

B1: TβRIIshort(23-159/D110K)-G2Fc: full-length short-isoform ECD with D110K substitution fused to IgG2 Fc; SEQ ID NO: 25 (unprocessed), 53 (mature) (protein)
chain: TIPPHVQKSVNNDMIVTDNNGAVKFPQLCKFCDVRFSTCDNQKSCMSNCSITSICEKPQEVCVAVWRKNDENITLETVCHDPKLPYHKFILEDAASPKCIMKEKKKPGETFFMCSCSSDECNDNIIFSEEYNTSNPDTGGGVECPPCPAPPVAGPSVFLFPPKPKDTLMISRTPEVTCVVVDVSHEDPEVQFNWYVDGVEVHNAKTKPREEQFNSTFRVVSVLTVVHQDWLNGKEYKCKVSNKGLPAPIEKTISKTKGQPREPQVYTLPPSREEMTKNQVSLTCLVKGFYPSDIAVEWESNGQPENNYKTTPPMLDSDGSFFLYSKLTVDKSRWQQGNVFSCSVMHEALHNHYTQKSLSLSPGK
For the molecule B1, in the data set with human TGFβ2, the “Degree of Ligand Inhibition: Negligible (ligand TGFβ2)” value is reported as “TGFβ2”. This molecule came in with an IC50 in the data set with human TGFβ1 (first experiment (D110K)) of more than 73.6 nM. Besides, in the data set with human TGFβ1, the “inhibition of TGFβ1 activity / signaling (in words)” value is on record as “loss of inhibition”. The “Degree of Ligand Inhibition: Moderate (ligand TGFβ3)” value with human TGFβ3 (setting [2]) was “TGFβ3”. In addition, the “inhibition of TGFβ3 activity / signaling (in words)” value with human TGFβ3 is “intermediate inhibition”.

B2: TβRIIshort(23-153/N70D)-G2Fc: C-terminally truncated short-isoform ECD with N70D substitution fused to IgG2 Fc; SEQ ID NO: 41 (unprocessed), 61 (mature) (protein)
chain: TIPPHVQKSVNNDMIVTDNNGAVKFPQLCKFCDVRFSTCDNQKSCMSDCSITSICEKPQEVCVAVWRKNDENITLETVCHDPKLPYHDFILEDAASPKCIMKEKKKPGETFFMCSCSSDECNDNIIFSEEYTGGGVECPPCPAPPVAGPSVFLFPPKPKDTLMISRTPEVTCVVVDVSHEDPEVQFNWYVDGVEVHNAKTKPREEQFNSTFRVVSVLTVVHQDWLNGKEYKCKVSNKGLPAPIEKTISKTKGQPREPQVYTLPPSREEMTKNQVSLTCLVKGFYPSDIAVEWESNGQPENNYKTTPPMLDSDGSFFLYSKLTVDKSRWQQGNVFSCSVMHEALHNHYTQKSLSLSPGK
Turning to B2, in the data set with human TGFβ2, the “Degree of Ligand Inhibition: Negligible (ligand TGFβ2)” value was “TGFβ2”. For the same molecule, in the data set with human TGFβ1 (setting [3]), half-maximal inhibition (IC50) was put at 17.7 nM. In addition, in the data set with human TGFβ1, the “inhibition of TGFβ1 activity / signaling (in words)” value is “greatly diminished ability to inhibit TGFβ1”. The “Degree of Ligand Inhibition: Potent (ligand TGFβ3)” value with human TGFβ3 (setting [2]) is “TGFβ3”. For the same molecule, in the data set with human TGFβ3, the “inhibition of TGFβ3 activity / signaling (in words)” value was “virtually undiminished ability to inhibit TGFβ3”.

B3: TβRIIshort(23-153)-G2Fc: C-terminally truncated (6 aa) short-isoform ECD fused to IgG2 Fc; SEQ ID NO: 37 (unprocessed), 59 (mature) (protein)
chain: TIPPHVQKSVNNDMIVTDNNGAVKFPQLCKFCDVRFSTCDNQKSCMSNCSITSICEKPQEVCVAVWRKNDENITLETVCHDPKLPYHDFILEDAASPKCIMKEKKKPGETFFMCSCSSDECNDNIIFSEEYTGGGVECPPCPAPPVAGPSVFLFPPKPKDTLMISRTPEVTCVVVDVSHEDPEVQFNWYVDGVEVHNAKTKPREEQFNSTFRVVSVLTVVHQDWLNGKEYKCKVSNKGLPAPIEKTISKTKGQPREPQVYTLPPSREEMTKNQVSLTCLVKGFYPSDIAVEWESNGQPENNYKTTPPMLDSDGSFFLYSKLTVDKSRWQQGNVFSCSVMHEALHNHYTQKSLSLSPGK
B3: the IC50 in the data set with human TGFβ1 (setting [3]) turned out to be 2.62 nM; with human TGFβ3 (A549 reporter gene assay, hTGFβ3 270 pg/ml, third experiment (C-terminal truncation, N70D)) it was 0.14 nM.

B4: TβRIIshort(29-159)-G2Fc: N-terminally truncated (6 aa) short-isoform ECD fused to IgG2 Fc; SEQ ID NO: 29 (unprocessed), 55 (mature) (protein)
chain: QKSVNNDMIVTDNNGAVKFPQLCKFCDVRFSTCDNQKSCMSNCSITSICEKPQEVCVAVWRKNDENITLETVCHDPKLPYHDFILEDAASPKCIMKEKKKPGETFFMCSCSSDECNDNIIFSEEYNTSNPDTGGGVECPPCPAPPVAGPSVFLFPPKPKDTLMISRTPEVTCVVVDVSHEDPEVQFNWYVDGVEVHNAKTKPREEQFNSTFRVVSVLTVVHQDWLNGKEYKCKVSNKGLPAPIEKTISKTKGQPREPQVYTLPPSREEMTKNQVSLTCLVKGFYPSDIAVEWESNGQPENNYKTTPPMLDSDGSFFLYSKLTVDKSRWQQGNVFSCSVMHEALHNHYTQKSLSLSPGK
For the molecule B4, the “Degree of Ligand Inhibition: Negligible (ligand TGFβ2)” value with human TGFβ2 was “TGFβ2”. For the same molecule, in the data set with human TGFβ1, the “Degree of Ligand Inhibition: Moderate (ligand TGFβ1)” value was “TGFβ1” and the “inhibition of TGFβ1 activity / signaling (in words)” value is on record as “maintains some TGFβ1 inhibitor effects”. In addition, the “Degree of Ligand Inhibition: Negligible (ligand TGFβ3)” value with human TGFβ3 (setting [2]) is “TGFβ3”. Besides, in the data set with human TGFβ3, the “inhibition of TGFβ3 activity / signaling (in words)” value is “greatly diminished ability to inhibit”.

B5: TβRIIshort(35-159)-G2Fc: N-terminally truncated (12 aa) short-isoform ECD fused to IgG2 Fc; SEQ ID NO: 33 (unprocessed), 57 (mature) (protein)
chain: DMIVTDNNGAVKFPQLCKFCDVRFSTCDNQKSCMSNCSITSICEKPQEVCVAVWRKNDENITLETVCHDPKLPYHDFILEDAASPKCIMKEKKKPGETFFMCSCSSDECNDNIIFSEEYNTSNPDTGGGVECPPCPAPPVAGPSVFLFPPKPKDTLMISRTPEVTCVVVDVSHEDPEVQFNWYVDGVEVHNAKTKPREEQFNSTFRVVSVLTVVHQDWLNGKEYKCKVSNKGLPAPIEKTISKTKGQPREPQVYTLPPSREEMTKNQVSLTCLVKGFYPSDIAVEWESNGQPENNYKTTPPMLDSDGSFFLYSKLTVDKSRWQQGNVFSCSVMHEALHNHYTQKSLSLSPGK
For B5, the “Degree of Ligand Inhibition: Negligible (ligand TGFβ2)” value with human TGFβ2 was “TGFβ2”. In the data set with human TGFβ1, the “Degree of Ligand Inhibition: Moderate (ligand TGFβ1)” value is on record as “TGFβ1” and the “inhibition of TGFβ1 activity / signaling (in words)” value was “maintains some TGFβ1 inhibitor effects”. Further, the “Degree of Ligand Inhibition: Negligible (ligand TGFβ3)” value with human TGFβ3 (setting [2]) is “TGFβ3”. Also, the “inhibition of TGFβ3 activity / signaling (in words)” value with human TGFβ3 is “greatly diminished ability to inhibit”.
